First the molecules themselves.
B1: Guanyl-specific ribonuclease T1, P00651 (parent)
chain: MMYSKLLTLTTLLLPTALALPSLVERACDYTCGSNCYSSSDVSTAQAAGYQLHEDGETVGSNSYPHKYNNYEGFDFSVSSPYYEWPILSSGDVYSGGSPGADRVVFNENNQLAGVITHTGASGNNFVECT

The first data set covers variants of B1. As to conditions: Aspergillus oryzae (strain ATCC 42149 / RIB 40); pH 7; 5 °C; Urea; DSC; MOPS 30 mM; reversible: yes; structure 1RN1; whole UniProt chain shown.
MMYSKLLTLTTLLLPTALALPSLVERACDYTCGSNCYSSSDVSTAQAAGYQLHEDGETVGSNSYPHKYNNYEGFDFSVSSPYYEWPILSSGDVYSGGSPGANRVVFNENNQLAGVITHTGASGNNFVECT: the “ddG of mutation (higher = less stable)” value worked out at 2.77 kcal/mol, the denaturant m value is 1.53 kcal/mol/M, the “denaturant midpoint (higher = more stable)” value (“denaturant midpoint” below) turned out to be 3.63 M and the unfolding free energy is 5.55 kcal/mol.

Staying with this data set, now noted: Aspergillus oryzae (strain ATCC 42149 / RIB 40); pH 7; 10 °C; Urea; DSC; MOPS 30 mM; reversible: yes; structure 1RN1; whole UniProt chain shown.
With MMYSKLLTLTTLLLPTALALPSLVERACDYTCGSNCYSSSDVSTAQAAGYQLHEDGETVGSNSYPHKYNNYEGFDFSVSSPYYEWPILSSGDVYSGGSPGANRVVFNENNQLAGVITHTGASGNNFVECT, the “ddG of mutation (higher = less stable)” value is 2.87 kcal/mol, the denaturant m value came out at 1.52 kcal/mol/M, the “denaturant midpoint” value stood at 3.3 M and the unfolding free energy was determined as 5 kcal/mol.

The data set is the same for the next values; noted with them: Aspergillus oryzae (strain ATCC 42149 / RIB 40); pH 7; 15 °C; Urea; DSC; MOPS 30 mM; reversible: yes; structure 1RN1; whole UniProt chain shown.
As for MMYSKLLTLTTLLLPTALALPSLVERACDYTCGSNCYSSSDVSTAQAAGYQLHEDGETVGSNSYPHKYNNYEGFDFSVSSPYYEWPILSSGDVYSGGSPGANRVVFNENNQLAGVITHTGASGNNFVECT, the “ddG of mutation (higher = less stable)” value came to 3.09 kcal/mol, the denaturant m value was 1.41 kcal/mol/M, the “denaturant midpoint” value was 3.01 M and the unfolding free energy turned out to be 4.25 kcal/mol.

In the case of MMYSKLLTLTTLLLPTALALPSLVERACDYTCGSNCYSSSDVSTAQAAGYQLHEDGETVGSNSYPHKYNNYEGFDFSVSSPYYEWPILSSGDVYSGGSPGAARVVFNENNQLAGVITHTGASGNNFVECT, the “ddG of mutation (higher = less stable)” value is 3.7 kcal/mol, the denaturant m value is 1.42 kcal/mol/M and the “denaturant midpoint” value is 2.57 M.

The data set is the same for the next values; noted with them: Aspergillus oryzae (strain ATCC 42149 / RIB 40); pH 7; 20 °C; Urea; DSC; MOPS 30 mM; reversible: yes; structure 1RN1; whole UniProt chain shown.
With MMYSKLLTLTTLLLPTALALPSLVERACDYTCGSNCYSSSDVSTAQAAGYQLHEDGETVGSNSYPHKYNNYEGFDFSVSSPYYEWPILSSGDVYSGGSPGANRVVFNENNQLAGVITHTGASGNNFVECT, the “ddG of mutation (higher = less stable)” value was determined as 3.19 kcal/mol, the denaturant m value is 1.48 kcal/mol/M, the “denaturant midpoint” value worked out at 2.39 M and the unfolding free energy came out at 3.53 kcal/mol.

The same data set, now with this note: Aspergillus oryzae (strain ATCC 42149 / RIB 40); pH 7; 25 °C; Urea; DSC; MOPS 30 mM; reversible: yes; structure 1RN1; whole UniProt chain shown.
On to MMYSKLLTLTTLLLPTALALPSLVERACDYTCGSNCYSSSDVSTAQAAGYQLHEDGETVGSNSYPHKYNNYEGFDFSVSSPYYEWPILSSGDVYSGGSPGANRVVFNENNQLAGVITHTGASGNNFVECT, for which the “ddG of mutation (higher = less stable)” value came to 3.51 kcal/mol, the denaturant m value was 1.44 kcal/mol/M, the “denaturant midpoint” value was 1.8 M and the unfolding free energy was 2.58 kcal/mol.

Staying with this data set, now noted: Aspergillus oryzae (strain ATCC 42149 / RIB 40); pH 7; Thermal; DSC; MOPS 30 mM; reversible: yes; structure 1RN1; whole UniProt chain shown.
On to MMYSKLLTLTTLLLPTALALPSLVERACDYTCGSNCYSSSDVSTAQAAGYQLHEDGETVGSNSYPHKYNNYEGFDFSVSSPYYEWPILSSGDVYSGGSPGANRVVFNENNQLAGVITHTGASGNNFVECT, for which the Tm was 37 °C; the “change of melting temperature, mutant - wild type (higher = more stable)” value (“change of melting temperature, mutant” for short) was -13.8 °C; the “unfolding enthalpy (calorimetric)” value is 76 kcal/mol.

Take MMYSKLLTLTTLLLPTALALPSLVERACDYTCGSNCYSSSDVSTAQAAGYQLHEDGETVGSNSYPHKYNNYEGFDFSVSSPYYEWPILSSGDVYSGGSPGASRVVFNENNQLAGVITHTGASGNNFVECT: the Tm worked out at 37.2 °C; the “change of melting temperature, mutant” value was -13.6 °C; the “unfolding enthalpy (calorimetric)” value stood at 77.6 kcal/mol.

Take MMYSKLLTLTTLLLPTALALPSLVERACDYTCGSNCYSSSDVSTAQAAGYQLHEDGETVGSNSYPHKYNNYEGFDFSVSSPYYEWPILSSGDVYSGGSPGAARVVFNENNQLAGVITHTGASGNNFVECT: the melting temperature (Tm) was determined as 35.6 °C; the “change of melting temperature, mutant” value is -15.2 °C; the “unfolding enthalpy (calorimetric)” value came to 71.1 kcal/mol.

The data set is the same for the next values; noted with them: Aspergillus oryzae (strain ATCC 42149 / RIB 40); pH 7; 15 °C; Thermal; DSC; MOPS 30 mM; reversible: yes; structure 1RN1; whole UniProt chain shown.
MMYSKLLTLTTLLLPTALALPSLVERACDYTCGSNCYSSSDVSTAQAAGYQLHEDGETVGSNSYPHKYNNYEGFDFSVSSPYYEWPILSSGDVYSGGSPGASRVVFNENNQLAGVITHTGASGNNFVECT: the “ddG of mutation (higher = less stable)” value came out at 3.1 kcal/mol and the “heat capacity change of unfolding” value was 1.39 kcal/mol/K.

In the case of MMYSKLLTLTTLLLPTALALPSLVERACDYTCGSNCYSSSDVSTAQAAGYQLHEDGETVGSNSYPHKYNNYEGFDFSVSSPYYEWPILSSGDVYSGGSPGAARVVFNENNQLAGVITHTGASGNNFVECT, the “ddG of mutation (higher = less stable)” value came to 3.8 kcal/mol and the “heat capacity change of unfolding” value was 1.39 kcal/mol/K.

As usually defined, the Tm is the temperature at the midpoint of the melting transition.

The values above are taken from FireProtDB (doi:10.1021/bi991422s).
